Key:
Conditions in all cases: chain copies: 2; label: 5'-biotin on the ERE strand; blunt
[1] = target: T1, estrogen receptor alpha (ERα), purified (UniProt P03372 1-595); assay: SPR; SPR: 40 mM HEPES-KOH pH 7.4, 10 mM MgCl2, 200 mM KCl, 0.2% Triton X-100, 2 mM DTT, room temperature; ERα 58-708 nM (relative binding averaged over concentrations)
[2] = target: T1, estrogen receptor alpha (ERα), purified; assay: SPR; not significantly perturbed; SPR: 40 mM HEPES-KOH pH 7.4, 10 mM MgCl2, 200 mM KCl, 0.2% Triton X-100, 2 mM DTT, room temperature; ERα 58-708 nM (relative binding averaged over concentrations)
[3] = target: T1, estrogen receptor alpha (ERα), purified; assay: SPR; binding disrupted by about 40%; SPR: 40 mM HEPES-KOH pH 7.4, 10 mM MgCl2, 200 mM KCl, 0.2% Triton X-100, 2 mM DTT, room temperature; ERα 58-708 nM (relative binding averaged over concentrations)

T1 sequence (P03372 whole entry): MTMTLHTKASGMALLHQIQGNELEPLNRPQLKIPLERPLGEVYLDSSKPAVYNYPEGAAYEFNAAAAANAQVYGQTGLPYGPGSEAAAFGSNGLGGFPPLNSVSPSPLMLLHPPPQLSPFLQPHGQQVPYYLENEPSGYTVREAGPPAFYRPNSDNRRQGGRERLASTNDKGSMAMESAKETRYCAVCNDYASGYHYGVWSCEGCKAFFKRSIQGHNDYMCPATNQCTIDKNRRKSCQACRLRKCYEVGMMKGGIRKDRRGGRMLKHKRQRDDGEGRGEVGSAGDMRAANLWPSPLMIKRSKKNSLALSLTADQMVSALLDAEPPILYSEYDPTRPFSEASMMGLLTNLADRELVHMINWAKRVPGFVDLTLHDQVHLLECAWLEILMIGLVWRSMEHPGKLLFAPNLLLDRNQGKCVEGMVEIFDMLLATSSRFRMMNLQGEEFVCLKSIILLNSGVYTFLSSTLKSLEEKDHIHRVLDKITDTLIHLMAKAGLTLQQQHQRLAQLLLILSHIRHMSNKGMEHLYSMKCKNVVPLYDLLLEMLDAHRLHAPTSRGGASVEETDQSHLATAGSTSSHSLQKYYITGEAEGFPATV

B1: GREB1 ERE wildtype (dsDNA)
DNA 1: TGTGGCAACTGGGTCATTCTGACCTAGAAGCAAC
DNA 2: GTTGCTTCTAGGTCAGAATGACCCAGTTGCCACA
binding signal [1]: 100 % of wild type

B2: mutant 4 (outside the 3-bp flank, C to G) (dsDNA)
DNA 1: TGTGGGAACTGGGTCATTCTGACCTAGAAGCAAC
DNA 2: GTTGCTTCTAGGTCAGAATGACCCAGTTCCCACA
binding result [2]: binds

B3: mutant 1 (conserved 3' G to A) (dsDNA)
DNA 1: TGTGGCAACTGGGTCATTCTGACCTAAAAGCAAC
DNA 2: GTTGCTTTTAGGTCAGAATGACCCAGTTGCCACA
binding signal [3]: ~60 % of wild type

Source: PMC1794554, “Multiplatform genome-wide identification and modeling of functional human estrogen receptor binding sites”
